Results published in US20250299771A1.

What was measured:
[1] = biological target: HLA-C*07:02-A*02:01 chimera of Example 4 (heavy chain with human β2m) (human)
[2] = biological target: HLA-C*07:02/A*02:01 chimera of Example 2 (heavy chain with human β2m) (human)

Tm [1]: 49.8 °C
Tm [2]: 48.3 °C
Binder: RYRPGTVAL (modifications not checked) [RYR peptide (…)]
